Test results as given in the NTF2 design screens of Basanta et al. (2020).

Experiment: protease stability score; higher = more stable; yeast display proteolysis, trypsin and chymotrypsin;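 further: log10 excess protease needed over predicted unfolded state with 0 meaning unfolded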

Sequence | protease stability score
DQTDEAEKWMEHITRVLHHNDTDQMLELADENVKIDIGDKTYHGREQFSQLLRDIAERVDHFSQRIDSIRVNGDKVRIDFKNVLDHNGRKHSQQVVVEINRTNGQWRLKSLHKK | 0.151
DHDIRELFKRLVDAISTNDPQTMNNNMDKDVEARVGDQDYKGRENMAHELVKTREKIRLEMHLNSLNNEGDYVRVEVEQVLEDNGQPDRSVMDAEWRADNGRVQEYHVDEKP | -0.146
DDDENKNVLKRVVDILRTGDDKKMQKLADPNARLIVGDKTYHGREDMMHWVKELKQDVDHMKVEQIEVRGERARAILVAEVNGQQRRYLLIITVHNGRLKQMEVRSQ | 1.91
DEDTESNFRQFIRAWKSGNPNELRRLAPPDAHLKVGDKEWHGMEKAVTYLEREVKESTFDIKRWDVKVDGNSVTAHVKMVVHDNGQPNNYKVEMNANFHNGQIESYNVETRK | 0.267
DEDERQDLARKYNKALKQGDSKKFEELVDKHVKVEVGETRFHGREQASKNFRELVDNFDEFEVKSLEVHGESVTVEAVARINGRTANIRFQRTIHNGKNQVVKLNPDDMRRNLK | -0.134
DEDEKRKAEHLVRDGSFEELKDLMDENAKVRYGDKEFKGREQAQDAMRQMSRAVDSITVKSLDMQGDTVTARAQLTYNGQHYDVVIQMVVNNGRIKQFVVVVRDPKQKRTLENLRQ | 0.567
DKELWEWFRRWLENYRTGNHNNIREMADPNVRMVVGDKHISGREHYAEEVSRQVHKLRVSLDFKDYDLRPNRVNVDAVIRMTSDGEPDQSKWSQTLQFSNGRLHQANVTMNQ | 0.192
DDHLRREAKKMVKNYVKGDPDKVMEYVDPNATVNVGDKNIRGRESVREWVKTQKDQMRIQLTSMRVDASNGRVKISLDFRLNDNGKPDRVTVDIKLNMRNGRVQHVNIQTHK | 0.279
DDQQARDIAKELVKALQTGDPERFVELADPNARVEIGDKTYHGHDRMSEMIKTWHRDVDHIRIQDYRAKGDKIEIQFVLDINGKQNRLVMVVQVSNGRITVVFVRSG | 1.35
DDQDIRHILDQWRTGDFDQVRNQADENANIVYGDKRYHGREQLQEWMKTLKEQIDHFHIRSITQKGDKARFEAEADVNGVDVKFSVVISVHNGRVKFFEFQWTSEELLERIKHEIG | 0.942
EDELRTMVDQVMEAQKTGDFDKFIEQFDPNAHRRVGDKEVEGQEEMRHEQKRRDDNIRVDYNRMSVQVSNGVAKLTVHLNAHVNGKPVRLTIDIVFHARNGRFQSMQVDFTREQEKRKRS | -0.213
DEDALDQVEEMMRNNNEQEIADRADKDVEVEYGDHELHGREDMQDWAEKWQQQVDHLEVKSVHKKGDHFKMKLRAVFNGQEYTFVMVVEVHNGKIKNIKYDATSKEVKEIQKEVLK | -0.163
DEKQLHRVRHFLEVVRQGDEDNLREMADPNVRMVVGDKQFHGREEAVKFLVHKAKELRIDVKFKTINVRGDKVKAVAEMTENQNGKPHHAKLTWEIQMSNGKIQQLDFKLST | 0.275
DEEKEREMFKEFLNAFKSGDPDKLRKRMRQNVTLVYGDKSLHGRERAAKWFSELVKRVDHIEIESVKTDENHFDADVHLNVNGQNVIVHIRAKVENGRIVKVQYEYRDESQRRKLEK | 1.18
DDRNQAEKQVDEMRKIAKTGDEDRMADLFIDNPRFNVGDETYHGREQVVKYFRDTFRQVDHMHITLRRLSVHNGRVKAEFDVTLNRNGRETKDIFVVIQVKHNGTLRIESVHQK | 0.781
DEEKAKHRVEEFTQLLQENDWDHLANMADENARVQVGDQVYDGRKDIERWAKQVKERVDNVTVKEMSVSGNKMNANVEFQINGVTVRATIEIDFHNGKAKHMRVDPDVVRKQSR | 0.727
DEDDLETLLKKIIDAMRNGDPKQMMRLVDENAKLVVGDKTVHGREEVSKWMKELRRQVDDNDYKDFHVQGDKARIDHFVNINGTNTERVIDIEVHNGRVKRLVYHEK | 0.159
DNEFREEVKKAIDTGDPLEMVRQADKDVEVHVGDKYWHGREQVEKLMTLWKEQVDHLHVDRITHEPGRVKVDAVAQFNGVEFRFNMVIHAHNGKIKSVQFKNTDEDVKKKLEKILD | -0.288
DERDRRVMEDFFRALEEGDPDTLRQNMDKDAKLVIGDKTYHGREEIATRIVQHIEHAHVRMRVDSIRAHNGRVEVNVTFMVNHNGRPRSDRMNVEAVIRNGKIKELHLVTEK | -0.131
DERDVHRIAEQLIKAMQTGDEKKLTDLADKDAEAQIGDKEIHGNHDFSRAMREFRERVDHIELKDIRVHNGHVSVDIVADINGVQLRFVITMEVKNGKVRQLSVEVRDPEQEKTALS | 0.9
DEERKKQAEHFMRVYQQGNEEELNKLMDPNVKANVGDKEWQGREKMAKDTREKLEHSKLQLHSVSVDAQGNNIRIDVSFVVNHNGEPRRNHQTIIIHIDNGRITRLEVKDTS | 0.004
DEKKAKEAAHRLLEAMVTGDPRKLNENADEDVQVEYGDKSYTGREKLNEWAHEFQKRVDHVRIESIHQRGDTATVKVRVEHNGETDTFVLIVEAHNGRAKRIRQETR | 1.11
